Measured values reported in US20260242478A1 (published 2026).

B1: Phage-3955 (peptide)
peptide: YERVCVPSWMCNSL
notes: tested as crude clonal phage supernatant
B2: Phage-3956 (peptide)
peptide: DVLMCKPEWMCLGY
notes: as for B1
B3: Phage-3960 (peptide)
peptide: EGGYCVPTWMCSGF
notes: as for B1
B4: Phage-3953 (peptide)
peptide: GLPQCVPPWMCDGF
notes: as for B1
B5: Phage-3964 (peptide)
peptide: ITRMCTPSWMCMSF
notes: as for B1
B6: Phage-3963 (peptide)
peptide: ISAECRPPWMCIGF
notes: as for B1
B7: Phage-3958 (peptide)
peptide: TAPWCQPRWMCDGF
notes: as for B1
B8: Phage-3957 (peptide)
peptide: TIQWCEPLWMCRGF
notes: as for B1
B9: Phage-3954 (peptide)
peptide: FFQVCEPQWMCLGF
notes: as for B1
B10: Phage-3961 (peptide)
peptide: LVSWCTPPWMCEGV
notes: as for B1
B11: Phage-3966 (peptide)
peptide: GSVFCIPTWMCEQS
notes: as for B1
B12: Phage-3962 (peptide)
peptide: FDGWCVPAWMCYPF
notes: as for B1
B13: Phage-3965 (peptide)
peptide: MATMCVPQWMCAGF
notes: as for B1
B14: Phage-3959 (peptide)
peptide: AEMLCVPPWMCKAF
notes: as for B1

Columns and labels:
[1] = target: T1, PSMA Fab (biotinylated (site not stated)); assay: clonal phage ELISA on biotinylated PSMA Fab captured on neutravidin, blocking buffer alone, anti-M13 HRP detection;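 also: clonal phage were tested as crude supernatants, and the signal reflects phage still bound to the wells after washing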
T1 construct: Biotinylated PSMA Fab captured on neutravidin plates for the clonal phage ELISA; also called Anti-PSMA Fab; 006 PSMA Fab

[2] = target: T1, PSMA Fab; assay: clonal phage ELISA on captured PSMA Fab pre-incubated with PSMA antigen as competitor, anti-M13 HRP detection;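 also: crude clonal phage supernatants tested by ELISA, wells first treated with blocking buffer plus PSMA antigen, bound phage read out via HRP-linked anti-M13 antibody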
Method: (§1) Clonal phage were harvested as crude supernatants and screened via standard ELISAs. […] Prior to the addition of clonal phage. wells were incubated with blocking buffer and PSMA antigen or blocking buffer alone. Without washing or aspirating, clonal phage supernatants were then added to the wells and incubated for a short time. Wells were then washed followed by detection of bound phage using a horse radish conjugated anti-M13 antibody.

[3] = target: T2, Anti-PSMA Fab (biotinylated (site not stated)); assay: clonal phage ELISA on captured biotinylated PSMA Fab pre-incubated with PSMA antigen as competitor, anti-M13 HRP detection
T2 construct: Biotinylated PSMA Fab captured on neutravidin plates in the phage ELISA; also called 006 PSMA Fab

[4] = target: T2, Anti-PSMA Fab; assay: clonal phage ELISA on captured biotinylated PSMA Fab, anti-M13 HRP detection
Method: as §1

[5] = target: T3, Anti-PSMA Fab (biotinylated (site not stated)); assay: clonal phage ELISA on plate-captured biotinylated PSMA Fab, blocking buffer alone
T3 construct: Biotinylated PSMA Fab captured on neutravidin coated plates; also called 006 PSMA Fab

[6] = target: T3, Anti-PSMA Fab; assay: clonal phage ELISA on plate-captured biotinylated PSMA Fab, wells pre-incubated with PSMA antigen as competitor
Method: as §1

[7] = target: T4, anti-CD28 Fab (SEQ ID NOs: 696, 697); assay: phage ELISA; biotinylated anti-CD28 Fab on neutravidin plate, clonal phage supernatant, anti-M13 HRP detection;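 also: crude supernatants of single phage clones picked after panning were screened for binding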
T4 construct: In the phage ELISA the Fab was biotinylated and captured on neutravidin coated plates
T4 sequence (VH, as listed by the source, chain 1 of 2): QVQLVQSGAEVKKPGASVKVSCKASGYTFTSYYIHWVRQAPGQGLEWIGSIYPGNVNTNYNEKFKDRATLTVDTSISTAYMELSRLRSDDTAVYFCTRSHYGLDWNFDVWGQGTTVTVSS
T4 sequence (VL, as listed by the source, chain 2 of 2): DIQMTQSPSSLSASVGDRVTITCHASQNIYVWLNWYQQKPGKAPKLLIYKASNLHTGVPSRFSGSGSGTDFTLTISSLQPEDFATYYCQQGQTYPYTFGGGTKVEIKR
Method: (§2) After panning, phage infected bacteria were plated out and colonies picked into 96 well blocks. Clonal phage was then amplified and separated from bacterial cells via centrifugation.
(§3) Clonal phage were harvested as crude supematants and screened via standard ELISAs. […] Prior to the addition of clonal phage, wells were incubated with blocking buffer and CD28 antigen or blocking buffer alone. Without washing or aspirating, clonal phage supematants were then added to the wells and incubated for a short time. Wells were then washed followed by detection of bound phage using a horse radish conjugated anti-M13 antibody. Clonal phage of interest were then sent for sequence analysis.

[8] = target: T4, anti-CD28 Fab (SEQ ID NOs: 696, 697); assay: phage ELISA; biotinylated anti-CD28 Fab on neutravidin plate, wells pre-incubated with CD28 antigen as competitor, anti-M13 HRP detection
Method: as §2, §3

| Binder | Phage binding ELISA signal, Anti-PSMA Fab [1] | Phage binding ELISA signal, Anti-PSMA Fab in presence of PSMA antigen [2] | Phage binding ELISA signal, Anti-PSMA Fab in presence of PSMA antigen [3] | Phage binding ELISA signal, Anti-PSMA Fab [4] | Phage binding ELISA signal, Anti-PSMA Fab [5] | phage binding ELISA signal (Anti-PSMA Fab with PSMA) [6] | other results |
| --- | --- | --- | --- | --- | --- | --- | --- |
| QMSMCKPAWMCTGL [Phage-3973] | 0.767 | 0.0909 |  |  |  |  |  |
| VFKMCVPMWMCQVS [Phage-3992] |  |  | 0.0687 | 0.635 |  |  |  |
| EYRECVPDWMCSGF [Phage-3980] | 0.731 | 0.0722 |  |  |  |  |  |
| SVMNCVPLRMCEGF [Phage-3991] |  |  | 0.0968 | 0.644 |  |  |  |
| B1 |  |  |  |  | 0.838 | 0.0845 |  |
| KHILCEPVWMCVGF [Phage-3984] |  |  | 0.0708 | 0.697 |  |  |  |
| B2 |  |  |  |  | 0.837 | 0.0628 |  |
| B3 |  |  |  |  | 0.822 | 0.0786 |  |
| GGVMCRPMWMCAGF [Phage-3967] | 0.81 | 0.0836 |  |  |  |  |  |
| SYQLCKPEWMCHGW [Phage-3982] |  |  | 0.0692 | 0.715 |  |  |  |
| DARMCIPMWMCQAF [Phage-3977] | 0.742 | 0.0713 |  |  |  |  |  |
| YCAGMSTIQLWLKC (also called Peptide-94) [Phage-473] |  |  |  |  |  |  | Phage binding ELISA, Anti-CD28 Fab (SEQ ID NOs: 696, 697) signal [7]: 2.16; Phage binding ELISA, Anti-CD28 Fab signal in the presence of CD28 [8]: 0.09 |
| DARLCTPLWMCTGF [Phage-3972] | 0.781 | 0.0622 |  |  |  |  |  |
| B4 |  |  |  |  | 0.864 | 0.056 |  |
| SYMRCEPEWMCSGL [Phage-3970] | 0.786 | 0.121 |  |  |  |  |  |
| GFRTCVPSWMCTGF [Phage-3978] | 0.734 | 0.0906 |  |  |  |  |  |
| PAQICMPAWMCHGF [Phage-3976] | 0.754 | 0.0646 |  |  |  |  |  |
| EIGACVPDWMCRGF [Phage-3968] | 0.809 | 0.0694 |  |  |  |  |  |
| B5 |  |  |  |  | 0.814 | 0.078 |  |
| IAVKCMPAWMCVGI [Phage-3993] |  |  | 0.0897 | 0.632 |  |  |  |
| VVVQCIPEWMCNGF [Phage-3981] |  |  | 0.0683 | 0.729 |  |  |  |
| STLLCTPEWMCFGM [Phage-3969] | 0.789 | 0.0553 |  |  |  |  |  |

| Binder | Phage binding ELISA signal, Anti-PSMA Fab [1] | Phage binding ELISA signal, Anti-PSMA Fab in presence of PSMA antigen [2] | Phage binding ELISA signal, Anti-PSMA Fab in presence of PSMA antigen [3] | Phage binding ELISA signal, Anti-PSMA Fab [4] | Phage binding ELISA signal, Anti-PSMA Fab [5] | phage binding ELISA signal (Anti-PSMA Fab with PSMA) [6] | other results |
| --- | --- | --- | --- | --- | --- | --- | --- |
| B6 |  |  |  |  | 0.815 | 0.0626 |  |
| B7 |  |  |  |  | 0.828 | 0.0701 |  |
| B8 |  |  |  |  | 0.835 | 0.0643 |  |
| QQVRCVPDWMCSGF [Phage-3974] | 0.762 | 0.0755 |  |  |  |  |  |
| DCPWLSGFSRPLLC (also called Peptide-93) [Phage-472] |  |  |  |  |  |  | Phage binding ELISA, Anti-CD28 Fab (SEQ ID NOs: 696, 697) signal [7]: 1.27; Phage binding ELISA, Anti-CD28 Fab signal in the presence of CD28 [8]: 0.07 |
| B9 |  |  |  |  | 0.854 | 0.0548 |  |
| LLIVCKPPWMCAGS [Phage-3990] |  |  | 0.0992 | 0.666 |  |  |  |
| EAKWCTPQWMCGGF [Phage-3975] | 0.756 | 0.0703 |  |  |  |  |  |
| VQTRCVPAWMCDGF [Phage-3971] | 0.782 | 0.0744 |  |  |  |  |  |
| NGPMCVPQWMCDGT [Phage-3986] |  |  | 0.0558 | 0.691 |  |  |  |
| MTDRCKPEWMCFGF [Phage-3989] |  |  | 0.142 | 0.677 |  |  |  |
| B10 |  |  |  |  | 0.818 | 0.131 |  |
| EWPICRPSWMCDDF [Phage-3994] |  |  | 0.0604 | 0.63 |  |  |  |
| B11 |  |  |  |  | 0.813 | 0.07 |  |
| B12 |  |  |  |  | 0.816 | 0.0796 |  |
| YERMCSPEWMCWDF [Phage-3983] |  |  | 0.0861 | 0.704 |  |  |  |
| STPYCVPDWMCAGF [Phage-3988] |  |  | 0.0729 | 0.683 |  |  |  |
| B13 |  |  |  |  | 0.814 | 0.141 |  |
| HVQRCVPQWMCVGF [Phage-3987] |  |  | 0.119 | 0.686 |  |  |  |
| B14 |  |  |  |  | 0.823 | 0.0615 |  |
| VENLCRPSWMCEGF [Phage-3985] |  |  | 0.112 | 0.696 |  |  |  |
| LSVECIPVWMCNGF [Phage-3979] | 0.732 | 0.0832 |  |  |  |  |  |
